Results published in article PMC7706699.

target: hFip1 (residues 137–243) S159C/C189S/C216S mutant, FAM-labeled (human) (UniProt Q6UN15); assay: fluorescence polarisation

Point of comparison: “human CPSF30 ZF2–C terminus (residues 62–244), wild type (from UniProt O95639-2 62-244) (domain or fragment)”, Kd 11.4 nM. Against it:
- human CPSF30 (residues 62–244) Y151A mutant (from UniProt O95639-2 62-244) (domain or fragment) — 2.1-fold lower, 5.4 nM
- human CPSF30 (residues 62–244) Y127A mutant (from UniProt O95639-2 62-244) (domain or fragment) — 1.9-fold higher, 22 nM
